Source: patent US20210122824A1

How the values were obtained:
Experiment in all cases: flow cytometry, HEK293F cells transiently expressing the target, 100 nM antibody, PE anti-human Fc; Mean (PE-A against FITC-A, GFP surrogate)
[1] = target: human PD-L1 expressed on cell surface (human) (UniProt Q9NZQ7)
[2] = target: human PD1 expressed on HEK293F cells (human) (UniProt Q15116)
[3] = target: rhesus PD-L1 expressed on HEK293F cells (rhesus) (UniProt F6VEW6)
[4] = target: human CTLA4 expressed on HEK293F cells (human) (UniProt P16410)
Chain of human CTLA4 expressed on HEK293F cells (human) (P16410 36-223): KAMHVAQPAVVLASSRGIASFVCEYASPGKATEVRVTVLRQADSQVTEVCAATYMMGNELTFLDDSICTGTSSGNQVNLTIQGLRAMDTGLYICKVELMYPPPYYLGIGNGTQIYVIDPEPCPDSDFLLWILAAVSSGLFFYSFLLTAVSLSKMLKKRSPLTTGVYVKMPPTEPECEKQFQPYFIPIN

[5] = target: human B7-H3 expressed on HEK293F cells (human) (UniProt Q5ZPR3)
Chain of human B7-H3 expressed on HEK293F cells (human) (Q5ZPR3 29-534): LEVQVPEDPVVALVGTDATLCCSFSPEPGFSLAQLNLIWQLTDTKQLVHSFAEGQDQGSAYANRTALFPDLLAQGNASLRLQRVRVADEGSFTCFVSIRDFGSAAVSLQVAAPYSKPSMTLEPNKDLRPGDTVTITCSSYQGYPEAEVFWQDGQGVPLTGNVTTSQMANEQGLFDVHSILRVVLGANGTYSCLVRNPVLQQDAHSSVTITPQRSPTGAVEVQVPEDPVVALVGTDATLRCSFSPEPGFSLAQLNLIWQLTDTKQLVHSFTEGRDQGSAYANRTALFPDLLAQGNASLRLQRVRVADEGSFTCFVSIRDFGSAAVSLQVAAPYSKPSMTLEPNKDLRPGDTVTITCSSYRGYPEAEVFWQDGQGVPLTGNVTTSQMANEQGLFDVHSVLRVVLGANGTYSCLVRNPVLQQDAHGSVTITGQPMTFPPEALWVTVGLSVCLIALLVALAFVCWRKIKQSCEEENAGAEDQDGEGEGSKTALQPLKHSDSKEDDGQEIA

[6] = target: human LAG3 expressed on HEK293F cells (human) (UniProt P18627)
Chain of human LAG3 expressed on HEK293F cells (human) (P18627 23-525): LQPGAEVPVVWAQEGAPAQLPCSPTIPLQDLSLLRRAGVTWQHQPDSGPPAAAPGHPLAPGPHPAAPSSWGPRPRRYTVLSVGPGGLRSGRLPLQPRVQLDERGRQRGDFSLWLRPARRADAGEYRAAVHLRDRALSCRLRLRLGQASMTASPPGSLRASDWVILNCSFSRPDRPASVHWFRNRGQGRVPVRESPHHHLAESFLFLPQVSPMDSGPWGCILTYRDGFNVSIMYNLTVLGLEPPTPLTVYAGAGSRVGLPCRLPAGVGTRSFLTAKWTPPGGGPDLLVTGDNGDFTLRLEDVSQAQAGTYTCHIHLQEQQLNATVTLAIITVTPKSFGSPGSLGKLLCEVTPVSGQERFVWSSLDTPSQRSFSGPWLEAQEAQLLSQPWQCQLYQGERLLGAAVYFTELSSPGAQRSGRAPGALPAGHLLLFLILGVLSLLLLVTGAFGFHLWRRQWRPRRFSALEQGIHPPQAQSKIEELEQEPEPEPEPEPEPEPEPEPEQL

[7] = target: mouse PD-L1 expressed on HEK293F cells (mouse) (UniProt Q9EP73)
Chain of mouse PD-L1 expressed on HEK293F cells (mouse) (Q9EP73 19-290): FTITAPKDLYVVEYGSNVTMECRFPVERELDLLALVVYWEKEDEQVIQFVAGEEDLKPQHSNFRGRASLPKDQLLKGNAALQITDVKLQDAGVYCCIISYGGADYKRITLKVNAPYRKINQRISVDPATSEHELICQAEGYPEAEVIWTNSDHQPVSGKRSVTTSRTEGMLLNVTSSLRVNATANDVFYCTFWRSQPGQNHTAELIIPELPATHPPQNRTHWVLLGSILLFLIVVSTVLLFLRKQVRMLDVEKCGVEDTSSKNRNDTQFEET

[8] = target: human TIM3 expressed on HEK293F cells (human) (UniProt Q8TDQ0)

Chain of human PD1 expressed on HEK293F cells (human) (Q15116 25-288): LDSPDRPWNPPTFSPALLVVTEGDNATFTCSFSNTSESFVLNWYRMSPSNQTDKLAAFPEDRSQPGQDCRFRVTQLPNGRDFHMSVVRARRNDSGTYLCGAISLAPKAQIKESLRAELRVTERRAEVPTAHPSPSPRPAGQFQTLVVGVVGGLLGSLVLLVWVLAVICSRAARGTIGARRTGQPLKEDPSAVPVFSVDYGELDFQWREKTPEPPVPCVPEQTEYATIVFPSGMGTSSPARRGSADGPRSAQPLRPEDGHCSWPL
Chain of human PD-L1 expressed on cell surface (human) (Q9NZQ7 19-290): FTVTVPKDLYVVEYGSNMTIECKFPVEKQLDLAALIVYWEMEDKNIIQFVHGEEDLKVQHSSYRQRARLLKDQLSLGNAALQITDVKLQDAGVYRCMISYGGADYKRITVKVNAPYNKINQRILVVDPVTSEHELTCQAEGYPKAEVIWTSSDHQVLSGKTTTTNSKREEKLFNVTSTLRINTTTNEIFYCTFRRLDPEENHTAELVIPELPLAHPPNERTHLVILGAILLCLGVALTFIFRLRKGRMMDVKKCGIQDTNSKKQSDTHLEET

**Q.** Which Mean [1] does the source give for Isotype control (antibody) here?
**A.** 2470

**Q.** And the Mean [2]?
**A.** 3050

**Q.** And the Mean [3]?
**A.** 2520

**Q.** And the Mean [4]?
**A.** 2480

**Q.** What about the Mean [5] of the same substance?
**A.** 2690

**Q.** What about the Mean [6] of the same substance?
**A.** 2440

**Q.** What about the Mean [7] of the same substance?
**A.** 3030

**Q.** And the Mean [8]?
**A.** 2280
